One experiment concerns the target hMor1-34GS-Nb10 (human). In words: radioligand competition against [3H]-diprenorphine on Sf9 membranes.
For experiment [1], the target named is hMor1-34GS-Nb33 (human). Described as above.
Experiment [2] deals with hMor1-34GS-Nb33 (human). In words: ratio of the IC50s on hMor1-34GS-Nb10 (reference) and hMor1-34GS-Nb33 membranes, [3H]-diprenorphine competition.

What is called IC50 is the concentration that gives 50% inhibition. A high value points to lower potency.

As to Dmt1-Dalda (peptide), the IC50 with hMor1-34GS-Nb10 (human) was 0.655 µM; with hMor1-34GS-Nb33 (human) [1], 0.018 µM.
For KGOP01 (peptide), the results for the IC50 in the experiment with hMor1-34GS-Nb10 (human) and with hMor1-34GS-Nb33 (human) [1] were 0.0767 µM and 0.0038 µM, respectively. Besides, the IC50Nb10/IC50Nb33 with hMor1-34GS-Nb33 (human) [2] was found to be 20.

The record behind these values is patent US20150376261A1.
